In publication PMC4661524 (Scientific Reports, 2015):
One block for each binder: values may come before it.

Columns and labels:
Conditions in all cases: both partners purified
[1] = molecular target: T1, biotinylated HLA-DM ectodomain (human, UniProt P28067 27-233; P28068 19-218, biotin on the C-terminal avitag (BirA); which chain carries the avitag is not stated); assay: SPR; BIAcore, 25 C, pH 7.2 (running buffer pH 7.16); biotinylated DM (120-130 RU) on a streptavidin chip, DOv injected; 80 mM citrate-phosphate, 150 mM NaCl, 0.06% BSA, 0.05% P20; apparent KD from fitted equilibrium RU (slow dissociation model)
T1 construct: HLA-DM alpha chain, human, ectodomain; HLA-DM beta chain, human, ectodomain; Alpha/beta heterodimer; The supplement says only that avitag and flag-tag stand at a C-terminus; they are written on the beta chain for want of a statement; A KT3-tag at the C-terminus of recombinant DM beta is named in the western blot methods (D1:p7); also called bio-DM; sDM-Avi
T1 sequence (P28067 27-233, chain 1 of 2): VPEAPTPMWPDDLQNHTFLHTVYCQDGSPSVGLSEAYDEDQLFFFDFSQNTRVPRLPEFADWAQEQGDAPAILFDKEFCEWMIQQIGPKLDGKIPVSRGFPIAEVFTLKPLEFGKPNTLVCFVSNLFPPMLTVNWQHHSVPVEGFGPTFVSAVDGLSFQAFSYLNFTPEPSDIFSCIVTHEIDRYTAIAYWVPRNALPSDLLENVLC
T1 sequence (P28068 19-218, chain 2 of 2): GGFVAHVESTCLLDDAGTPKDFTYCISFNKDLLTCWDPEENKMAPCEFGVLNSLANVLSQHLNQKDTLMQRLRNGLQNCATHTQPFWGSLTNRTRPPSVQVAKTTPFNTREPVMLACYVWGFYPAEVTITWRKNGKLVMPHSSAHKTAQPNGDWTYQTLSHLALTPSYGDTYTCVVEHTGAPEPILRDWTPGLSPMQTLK

[2] = molecular target: T1, biotinylated HLA-DM ectodomain; assay: SPR; BIAcore, 25 C, pH 6.3 (running buffer pH 6.26); biotinylated DM on a streptavidin chip, untreated DOv injected; 80 mM citrate-phosphate, 150 mM NaCl, 0.06% BSA, 0.05% P20; apparent KD from fitted equilibrium RU
[3] = molecular target: T1, biotinylated HLA-DM ectodomain; assay: SPR; BIAcore, 37 C, pH 6.3; biotinylated DM on a streptavidin chip, DOv injected; 80 mM citrate-phosphate, 150 mM NaCl, 0.06% BSA, 0.05% P20; apparent KD from fitted equilibrium RU
[4] = molecular target: T1, biotinylated HLA-DM ectodomain; assay: SPR; BIAcore, 25 C, pH 4.85; biotinylated DM on a streptavidin chip, DOv injected; 80 mM citrate-phosphate, 150 mM NaCl, 0.06% BSA, 0.05% P20; apparent KD from fitted equilibrium RU
[5] = molecular target: T1, biotinylated HLA-DM ectodomain; assay: SPR; BIAcore, 25 C, pH 6.3; biotinylated DM on a streptavidin chip; analyte: intact DOv SEC-purified after a pH 4.6 pulse (37 C, 8 min); apparent KD from fitted equilibrium RU
[6] = molecular target: T1, biotinylated HLA-DM ectodomain; assay: SPR; BIAcore, 37 C, pH 4.85; biotinylated DM on a streptavidin chip, DOv injected; 80 mM citrate-phosphate, 150 mM NaCl, 0.06% BSA, 0.05% P20; apparent KD from fitted equilibrium RU
[7] = molecular target: T1, biotinylated HLA-DM ectodomain; assay: SPR; BIAcore, 25 C, pH 5.5 (running buffer pH 5.49); biotinylated DM on a streptavidin chip, DOv injected; 80 mM citrate-phosphate, 150 mM NaCl, 0.06% BSA, 0.05% P20; apparent KD from fitted equilibrium RU
[8] = molecular target: T2, HLA-DM ectodomain of the DM-DOwt complex (human, UniProt P28067 27-233; P28068 19-218); assay: SEC; DM-DOwt ectodomains incubated at pH 4.6, 5.4 or 6.3 for the indicated times (4 h, 24 h) or not treated, separated by size exclusion chromatography; fractions western blotted with DO- or DM-specific antibodies
T2 construct: HLA-DM alpha chain, ectodomain; HLA-DM beta chain, ectodomain; For BLI the DM-DOwt complex was biotinylated; also called DM (in DM-DOwt); DM-DO ectodomains; source: recombinant, purified in complex with DOwt (double SEC-purified DM-DO ectodomains)
T2 sequence (P28067 27-233, chain 1 of 2): as the sequence (P28067 27-233, chain 1 of 2) above
T2 sequence (P28068 19-218, chain 2 of 2): as the sequence (P28068 19-218, chain 2 of 2) above

[9] = molecular target: T3, biotinylated DM (soluble HLA-DM, SPR ligand) (human, UniProt P28067 27-233; P28068 19-218, biotin (chain and site not stated) | biotin (chain and site not stated)); assay: SPR; BIAcore; 120–130 RU biotinylated DM on a streptavidin chip, DOv injected (Kinject, 30 μl/min, 5 min); 80 mM citrate-phosphate, 150 mM NaCl, 0.06% BSA, 0.05% P20, pH 4.85, 5.49, 6.26, 7.16; 25 °C or 37 °C; single cycle mode at pH 4.85 with >4 h dissociation; apparent constants (slow dissociation model)
T3 construct: HLA-DM alpha chain, ectodomain; HLA-DM beta chain, ectodomain; captured on a streptavidin chip; also called immobilized DM; source: recombinant, purified
T3 sequence (P28067 27-233, chain 1 of 2): as the sequence (P28067 27-233, chain 1 of 2) above
T3 sequence (P28068 19-218, chain 2 of 2): as the sequence (P28068 19-218, chain 2 of 2) above

[10] = molecular target: T4, soluble HLA-DM ectodomain (human, UniProt P28067 27-233; P28068 19-218); assay: BLI; Octet QK, 25 C as the table's head says, pH 5.5 (50 mM citrate, 150 mM NaCl, 0.01% BSA, 0.002% Tween 20); biotinylated DOv on streptavidin biosensors, soluble DM 6.25-1600 nM; apparent KD from fitted equilibrium wavelength shifts
T4 construct: HLA-DM alpha chain, human, ectodomain; HLA-DM beta chain, human, ectodomain; The analyte of the BLI experiments, not biotinylated; also called sDM; soluble DM
T4 sequence (P28067 27-233, chain 1 of 2): as the sequence (P28067 27-233, chain 1 of 2) above
T4 sequence (P28068 19-218, chain 2 of 2): as the sequence (P28068 19-218, chain 2 of 2) above

[11] = molecular target: T4, soluble HLA-DM ectodomain; assay: BLI; Octet QK, 25 C as the table's head says, table row pH 4.85 (kinetic buffer 50 mM acetate pH 4.7, 150 mM NaCl, 0.01% BSA, 0.002% Tween 20); biotinylated DOv on streptavidin biosensors, soluble DM 6.25-1600 nM; apparent KD from fitted equilibrium wavelength shifts
[12] = molecular target: T4, soluble HLA-DM ectodomain; assay: BLI; Octet QK, 25 C as the table's head says, pH 6.3 (50 mM MES, 150 mM NaCl, 0.01% BSA, 0.002% Tween 20); biotinylated DOv on streptavidin biosensors, soluble DM 6.25-1600 nM; apparent KD from fitted equilibrium wavelength shifts
[13] = molecular target: T4, soluble HLA-DM ectodomain; assay: BLI; Octet QK, 25 C as the table's head says, table row pH 7.2 (kinetic buffer 50 mM HEPES pH 7.4, 150 mM NaCl, 0.01% BSA, 0.002% Tween 20); biotinylated DOv on streptavidin biosensors, soluble DM 6.25-1600 nM; apparent KD from fitted equilibrium wavelength shifts

Kd [1]: 9.4 nM | Kd [2]: 14.1 nM | Kd [3]: 12.6 nM | Kd [4]: 148 nM | Kd [5]: 27.5 nM | Kd [6]: 240 nM | Kd [7]: 21.9 nM
B1: stabilized HLA-DO variant ectodomain (alpha P11A) (domain or fragment, human)
MHC II alpha: TKADHMGSYGAAFYQSYGASGQFTHEFDEEQLFSVDLKKSEAVWRLPEFGDFARFDPQGGLAGIAAIKAHLDILVERSNRSRAINVPPRVTVLPKSRVELGQPNILICIVDNIFPPVINITWLRNGQTVTEGVAQTSFYSQPDHLFRKFHYLPFVPSAEDVYDCQVEHWGLDAPLLRHWELQVPIPPPDAME
MHC II beta: TDSPEDFVIQAKADCYFTNGTEKVQFVVRFIFNLEEYVRFDSDVGMFVALTKLGQPDAEQWNSRLDLLERSRQAVDGVCRHNYRLGAPFTVGRKVQPEVTVYPERTPLLHQHNLLHCSVTGFYPGDIKIKWFLNGQEERAGVMSTGPIRNGDWTFQTVVMLEMTPELGHVYTCLVDHSSLLSPVSVEWRAQSEYSWRK
notes: HLA-DO alpha chain, human, ectodomain; HLA-DO beta chain, human, ectodomain; Alpha/beta heterodimer, not biotinylated when used as SPR analyte; The avitag is said to stand at the C-terminus of recombinant DO beta (D1:p7); The 'sz' of the cell line's name may mean leucine zippers; In one experiment the intact fraction after a pH 4.6 pulse (37 C, 8 min, SEC 12-13 ml) was used; also called szDOv-Avi

binding result [8]: binds
B2: wild type HLA-DO ectodomain (DOwt) of the DM-DOwt complex (complex, human)
MHC II alpha: TKADHMGSYGPAFYQSYGASGQFTHEFDEEQLFSVDLKKSEAVWRLPEFGDFARFDPQGGLAGIAAIKAHLDILVERSNRSRAINVPPRVTVLPKSRVELGQPNILICIVDNIFPPVINITWLRNGQTVTEGVAQTSFYSQPDHLFRKFHYLPFVPSAEDVYDCQVEHWGLDAPLLRHWELQVPIPPPDAME
MHC II beta: TDSPEDFVIQAKADCYFTNGTEKVQFVVRFIFNLEEYVRFDSDVGMFVALTKLGQPDAEQWNSRLDLLERSRQAVDGVCRHNYRLGAPFTVGRKVQPEVTVYPERTPLLHQHNLLHCSVTGFYPGDIKIKWFLNGQEERAGVMSTGPIRNGDWTFQTVVMLEMTPELGHVYTCLVDHSSLLSPVSVEWRAQSEYSWRK
notes: HLA-DO alpha chain, ectodomain; HLA-DO beta chain, ectodomain; For BLI the DM-DOwt complex was biotinylated; also called wild type DO; source: recombinant, purified in complex with DM (double SEC-purified DM-DO ectodomains)

fold increase of KD,app from pH 7.2 to pH 4.7 [9]: > 10 fold
B3: stabilized HLA-DO variant (DOv), ectodomain with αP11A (complex, human)
MHC II alpha: TKADHMGSYGAAFYQSYGASGQFTHEFDEEQLFSVDLKKSEAVWRLPEFGDFARFDPQGGLAGIAAIKAHLDILVERSNRSRAINVPPRVTVLPKSRVELGQPNILICIVDNIFPPVINITWLRNGQTVTEGVAQTSFYSQPDHLFRKFHYLPFVPSAEDVYDCQVEHWGLDAPLLRHWELQVPIPPPDAME
MHC II beta: TDSPEDFVIQAKADCYFTNGTEKVQFVVRFIFNLEEYVRFDSDVGMFVALTKLGQPDAEQWNSRLDLLERSRQAVDGVCRHNYRLGAPFTVGRKVQPEVTVYPERTPLLHQHNLLHCSVTGFYPGDIKIKWFLNGQEERAGVMSTGPIRNGDWTFQTVVMLEMTPELGHVYTCLVDHSSLLSPVSVEWRAQSEYSWRK
notes: HLA-DO alpha chain, ectodomain; HLA-DO beta chain, ectodomain; Also used after pH 4.6 pulses and SEC isolation of the intact portion (assay a3); also called soluble DOv; source: recombinant, expressed and purified alone

Kd [10]: 26.9 nM | Kd [11]: 233 nM | Kd [12]: 17 nM | Kd [13]: 11.3 nM
B4: biotinylated stabilized HLA-DO variant ectodomain (alpha P11A) (domain or fragment, human)
MHC II alpha: TKADHMGSYGAAFYQSYGASGQFTHEFDEEQLFSVDLKKSEAVWRLPEFGDFARFDPQGGLAGIAAIKAHLDILVERSNRSRAINVPPRVTVLPKSRVELGQPNILICIVDNIFPPVINITWLRNGQTVTEGVAQTSFYSQPDHLFRKFHYLPFVPSAEDVYDCQVEHWGLDAPLLRHWELQVPIPPPDAME
MHC II beta: TDSPEDFVIQAKADCYFTNGTEKVQFVVRFIFNLEEYVRFDSDVGMFVALTKLGQPDAEQWNSRLDLLERSRQAVDGVCRHNYRLGAPFTVGRKVQPEVTVYPERTPLLHQHNLLHCSVTGFYPGDIKIKWFLNGQEERAGVMSTGPIRNGDWTFQTVVMLEMTPELGHVYTCLVDHSSLLSPVSVEWRAQSEYSWRK
modifications: biotin on the C-terminal avitag (BirA)
notes: HLA-DO alpha chain, human, ectodomain; HLA-DO beta chain, human, ectodomain; Same construct as Dm2, biotinylated and held on streptavidin biosensors in BLI; also called bio-DOv; biotinylated DOv
